Experimental data from patent publication US20260209363A1 (Chugai, published 2026).

Legend:
[1] = target: T1, MOG on mouse oligodendrocytes (mouse, UniProt Q61885 29-246); experiment: flow cytometry on mouse brain cell suspension, O4-positive/CD45-negative oligodendrocyte fraction, 4 degrees C 60 min, detection with Alexa Fluor 647 anti-delta GK antibody; (a) MSA-free DPBS, (b) DPBS with 50 mg/mL MSA, (c) mouse plasma [a), (b), (c]
T1 construct: whole, on cells; also called MOG on the cell membrane; MOG expressed by cells in the brain
T1 sequence (looked up): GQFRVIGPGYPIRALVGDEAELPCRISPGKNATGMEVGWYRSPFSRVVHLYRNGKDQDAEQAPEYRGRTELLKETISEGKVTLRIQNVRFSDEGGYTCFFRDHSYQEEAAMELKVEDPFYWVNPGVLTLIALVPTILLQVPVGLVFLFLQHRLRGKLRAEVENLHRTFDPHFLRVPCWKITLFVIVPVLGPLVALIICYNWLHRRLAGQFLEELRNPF
Experimental: The binding ability of albumin switch molecules against the membrane-type antigens were examined. Specifically, the antibodies (10 micro g/mL) indicated below were incubated with mouse brain cell suspension (2×10⁵ cells/well), in mouse serum albumin (MSA)-free DPBS (Thermo Fisher Scientific), DPBS containing Recombinant MSA (Albumin Bioscience) at 50 mg/mL, or mouse plasma (6 weeks old, male C57BL/6J mouse) at 4 degrees C. for 60 minutes. The mouse brain cell suspension was prepared from mouse brain using Adult Brain Dissociation Kit (Miltenyi Biotec) and gentleMACS (Miltenyi Biotec). Antibodies used for the reaction were IC17, MOG//IC17, and ABD094(H/L)-MOG//IC17. After the reaction, the cells were washed once with DPBS. […] Lastly, the cells were suspended in DPBS and analyzed by FACSCantoII (BD). The fluorescence intensities of Alexa Fluor 647 in the MOG-expressing oligodendrocyte O4-positive/CD45-negative fractions were measured (Schroeter, C. B. et al., One Brain-All Cells: A Comprehensive Protocol to Isolate All Principal CNS-Resident Cell Types from Brain and Spinal Cord of Adult Healthy and EAE Mice. Cells 2021, 10(3), 651).

[2] = target: T2, IL6R on IL6R-CHO cells (CHO cells forced to express IL6R) (UniProt P08887 20-468, limits assumed); experiment: flow cytometry on IL6R-CHO cells, 4 degrees C 60 min, detection with Alexa Fluor 647 anti-dGK antibody; (a) MSA-free medium, (b) medium with 50 mg/mL MSA, (c) mouse plasma [a), (b), (c]
T2 construct: whole, on cells; also called membrane-type IL6R; IL6R on the cell membrane
T2 sequence (looked up): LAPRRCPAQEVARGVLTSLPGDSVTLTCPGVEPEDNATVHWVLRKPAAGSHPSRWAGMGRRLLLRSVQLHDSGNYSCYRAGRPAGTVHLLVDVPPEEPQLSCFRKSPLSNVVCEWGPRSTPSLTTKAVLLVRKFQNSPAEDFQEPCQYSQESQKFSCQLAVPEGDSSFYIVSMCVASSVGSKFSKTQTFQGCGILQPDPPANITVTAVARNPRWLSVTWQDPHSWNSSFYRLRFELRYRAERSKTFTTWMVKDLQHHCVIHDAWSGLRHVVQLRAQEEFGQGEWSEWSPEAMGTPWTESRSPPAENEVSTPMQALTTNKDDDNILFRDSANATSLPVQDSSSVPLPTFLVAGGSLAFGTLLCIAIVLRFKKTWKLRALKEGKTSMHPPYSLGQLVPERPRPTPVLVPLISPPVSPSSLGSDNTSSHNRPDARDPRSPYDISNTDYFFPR
Experimental: Binding ability of albumin switch molecules against the membrane-type antigens were verified. Specifically, the antibodies (10 micro g/mL) indicated below were incubated with IL6R-CHO cells (Chiome Bioscience, 2×10⁵ cells/well) in mouse serum albumin (MSA)-free CHO-S-SFM II medium (Thermo Fisher Scientific), 50 mg/mL Recombinant MSA (Albumin Bioscience)-containing medium, or mouse plasma (6-week-old male C57BL/6J mouse) at 4 degrees C. for 60 minutes. Antibodies used for the reaction were IC17, H54//IC17, and ABD094(H/L)-H54//IC17. After the reaction, the cells were washed three times with PBS(−). Addition of Alexa Fluor 647-labeled anti-dGK antibody (10 micro g/mL) was followed by incubation at 4 degrees C. for 30 minutes. Lastly, the cells were suspended in PBS(−) and analyzed by FACSCantoII (BD).

human soluble IL-6R = target: T3, human soluble IL-6R (human, UniProt P08887 20-357, limits assumed); experiment: Gyrolab xP complex assay in C57BL/6J mouse plasma: antibody 0.15 µg/mL and human soluble IL-6R 0.15 µg/mL (final), capture by biotinylated anti-human IL-6R antibody, detection with AF647-anti-delta GK; signal as % of H54//IC17
T3 construct: Soluble form; also called sIL6R; Human IL-6R
T3 sequence (looked up): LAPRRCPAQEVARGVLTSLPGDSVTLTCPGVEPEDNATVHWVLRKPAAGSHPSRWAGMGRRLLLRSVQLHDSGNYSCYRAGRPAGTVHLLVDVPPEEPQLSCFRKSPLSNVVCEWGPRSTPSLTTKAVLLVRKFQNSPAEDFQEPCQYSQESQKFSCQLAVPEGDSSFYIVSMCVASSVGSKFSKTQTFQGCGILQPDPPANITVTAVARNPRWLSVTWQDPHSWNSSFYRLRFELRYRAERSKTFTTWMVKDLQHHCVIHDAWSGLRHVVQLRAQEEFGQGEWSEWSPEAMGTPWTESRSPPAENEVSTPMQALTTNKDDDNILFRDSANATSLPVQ
Experimental: First, to bind the albumin-binding portion to albumin in the plasma, the anti-human IL-6R antibodies (albumin switch molecules) indicated in Example 2 were diluted to 0.6 micro g/mL using C57BL/6J mouse plasma, and then incubated at room temperature for one hour. Next, for binding of the anti-human IL-6R antibody to the target antigen, one equivalent of human soluble IL-6R diluted to 0.6 micro g/mL in mouse plasma was added to the antibody solutions, and then the solutions were incubated at room temperature for one hour.
To detect the antigen-antibody complexes, first, the anti-delta GK antibody (AF647-anti-delta GK) was labeled using an Alexa flour 647 labeling kit (A20186, Thermo Fisher Scientific) according to the attached protocols. […]
Measurement of antigen-antibody complexes was performed using Gyrolab xP. […] The amount of the captured complex was detected by the fluorescence signal of AF647 (Detect PMT 25%). The fluorescence signal of AF647 was analyzed by Gyro Evaluator (version 3.6.2.30, Gyros Protein Technologies).

Mouse MOG (R&D system) = target: T4, Mouse MOG (R&D system) (mouse, UniProt Q61885 29-156, limits assumed); experiment: plasma MOG clearance in mice after IC17 0.2 mg/kg IV and MOG 0.021 mg/kg IV
T4 construct: also called mouse soluble MOG; soluble MOG
T4 sequence (looked up): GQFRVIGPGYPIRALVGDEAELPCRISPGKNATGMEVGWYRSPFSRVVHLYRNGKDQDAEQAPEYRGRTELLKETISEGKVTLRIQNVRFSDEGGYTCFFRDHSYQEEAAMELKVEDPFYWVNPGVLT

binding result [1]: no binding (tested: 10 µg/mL) | binding result [2]: no binding (tested: 10 µg/mL) | binding result (human soluble IL-6R): no binding (tested: 0.15 µg/mL) | binding result (Mouse MOG (R&D system)): no binding
B1: IC17 (antibody, human IgG1, kappa, V domains shown)
VH: QVQLQQSGPQLVRPGASVKISCKASGYSFTSYWMHWVNQRPGQGLEWIGMIDPSYSETRLNQKFKDKATLTVDKSSSTAYMQLSSPTSEDSAVYYCALYGNYFDYWGQGTTLTVSS
VL: DIQMTQSSSSFSVSLGDRVTITCKASEDIYNRLAWYQQKPGNAPRLLISGATSLETGVPSRFSGSGSGKDYTLSITSLQTEDVATYYCQQYWSTPYTFGGGTKLEVKR
notes: also called Anti-KLH antibody
